# Measurements published in the supplement of paper PMC12042874.
# ± gives the uncertainty stated by the source.
# Test: amyloid nucleation score (Sup35N fusion, yeast selection) (log enrichment); library NNK2; higher = more nucleation; inactive = no reads after selection
# In short: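 Growth for 7 days at 30°C on medium lacking adenine and uracil followed a 24-hour induction with 100 μM copper sulfate of psi-negative yeast expressing peptides of 20 random codons fused to Sup35N. Input and output plasmid inserts were sequenced with Illumina, and sequences with under 100 input reads were excluded. Nucleation score is the DiMSum log enrichment of output over input reads, centred on the mode score of non-aggregating sequences.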
row,Substance,amyloid nucleation score
1,ILRLIL,0.531 ± 0.51
2,RCMLKSIRLLSSVGRLHYRW,0.742 ± 0.48
3,RIASLTSLGGNMNCAVHSFE,-0.427 ± 1.1
4,ACANYGRVVWSSWDW,0.388 ± 0.39
5,PDNLCMKPFLIAGYYVPTTA,-1.55 ± 0.61
6,SFDLWLCTRRWLGGAWILL,-0.029 ± 0.65
7,QFLTLCSKSNVRTCYSHSCN,2.75 ± 0.19
8,PRRYLTIPLSFFLHNSIIGI,inactive
9,CAGYMRRHFSAAVTWTWAEG,1.22 ± 0.69
10,NGSRSSMSGARERYCYIRVS,inactive
11,YFLHCQPLVWDTLRVRQMVR,-0.062 ± 0.35
12,EPVGYSMLGHVIKTVLVLAR,inactive
13,VMWRTRGTACSLIVRWVGMG,0.822 ± 0.25
14,AYYYTVLYYSFNMFRFVYTW,inactive
15,CLNWRSLSS,3.34 ± 0.067
16,TIFFRCHWIRGLLVHLMF,inactive
17,FSPKKFK,-0.532 ± 1
18,IILAKLSLLTICCSIDWISR,3.07 ± 0.11
19,IFSQGHEYKRDELKNV,inactive
20,HFVRVSFGCCLVTLSMRVDR,0.669 ± 0.26
21,NKRHSGRFSVLQISA,0.957 ± 0.15
22,HYRYEVDYLSELCIPDGMPM,-0.197 ± 0.24
23,SGPLVWLLLWQFNDGLCGWG,-0.656 ± 0.49
24,YVVTYLRRRTLLAGSCISNY,0.164 ± 0.8
25,KWNRWYVALCLVSV,10.08 ± 0.03

row,Substance,amyloid nucleation score
1,FINGGSCYAFFCKYGYRMHR,-0.109 ± 0.37
2,IDRVVSTRSSGFVCGEAFCG,-0.365 ± 0.63
3,WLQAHGIVYLNICRNSGFVH,5.12 ± 0.058
4,QGDWVEGV,0.144 ± 0.79
5,GYWTGELH,inactive
6,SLVYL,1.1 ± 0.13
7,KLSSRYIYLYSRYEPSS,inactive
8,LGYCSSSILCPCCHKILFDA,-0.521 ± 0.21
9,PSLFTVFNVRLFQE,4.12 ± 0.072
10,CESWMGAKTITLELTGGDSE,0.664 ± 0.38
11,RECQHF,-0.077 ± 0.74
12,GVLFAELLIFVVKSSVVV,2.01 ± 0.23
13,YVMREDLGPGSQADPTSGRS,0.912 ± 0.27
14,CVLHEPLYS,-0.432 ± 0.3
15,GLTPSISSLRCIGSRFGKFS,0.86 ± 0.46
16,HVEWMTCWLVSNNTDPRWDR,0.911 ± 0.27
17,GGGYLCRVDYGSIDLTWLKS,-0.559 ± 0.76
18,VPYSICSKSSRESCRYVWYG,3.79 ± 0.053
19,KLACVEGTKWAASGIAPNV,0.946 ± 0.2
20,CLLGMYIVTDTARMTVCVGL,0.444 ± 0.49
21,RFDDASGDMVNAEG,4.6 ± 0.05
22,LTMVWNKSFGEIHRLWVGNS,-1.58 ± 0.62
23,NVYLTQSWSFHNLHRFYYST,2.57 ± 0.083
24,QSGYVGNGVWVVTVVSKLMC,6.796 ± 0.037
25,LLYEPFVWVYKHRYVVTGYS,-1.76 ± 0.76

row,Substance,amyloid nucleation score
1,LTCLLVRCSFVRCCVERPWS,-0.732 ± 0.54
2,HRVCLNTIGY,-1.02 ± 0.32
3,GVLMCVAVYRFVCMKRSGML,0.039 ± 0.19
4,RNCRDNYYSWRFKHLNRDRD,-0.076 ± 0.61
5,DSLNCGSRCKSAGDSNRWSL,0.11 ± 0.65
6,LYCILPLRL,inactive
7,HRVWTVIMWGS,0.699 ± 0.44
8,TSPRCYRFMIQSMYGLRTRV,0.883 ± 0.17
9,REVIRGLCMYKARWIRVGVG,0.947 ± 0.21
10,IFVFSWRIRMWLLKSLTCG,-0.904 ± 0.78
11,FLMSVTYCKGFGRTEECACC,-0.28 ± 0.33
12,LRLGRLPFMRSISVTCKNEL,1.91 ± 0.32
13,WALLGFLDYKLFLTAEVFSA,-0.498 ± 1.1
14,MYRCQSSVFIFGSYSPILCH,-0.303 ± 0.63
15,SVVFKNSVWYSITNHNIMSL,1.57 ± 0.29
16,TFNACNK,0.349 ± 0.18
17,VHLALTRCM,0.844 ± 0.32
18,SRLVFS,inactive
19,FEKISSAFFGNYGLFMNWLS,-0.441 ± 0.78
20,ILHPGSNLPRCRDMCILKGW,-0.226 ± 0.54
21,SEVILYGMHSNINLPI,0.063 ± 1.1
22,FYAVHLCLTYALGCRLVTSC,-0.932 ± 0.76
23,SKMSYAYFLSLTMRCVADSM,3.35 ± 0.06
24,MKGAKGDNFCIMV,inactive
25,SFYSDYNQLIISMGHWSSMN,4.35 ± 0.11

row,Substance,amyloid nucleation score
1,GNADRF,-1.12 ± 0.63
2,NYLASGQIIWLGYPSRSLSL,inactive
3,DKHYINASVSHEPSKNR,-0.724 ± 0.46
4,LIMRIVWGGLQDQGSVRSSR,0.855 ± 0.35
5,ASCWTVGQLTHVSVSMWGFI,0.943 ± 0.53
6,FMLTLQKTLFFCNDRVC,5.25 ± 0.064
7,ANLWNEGFPLNGLHDNGIDQ,-0.379 ± 0.49
8,YVGSTLAFNNKIGGDYNMKS,-0.54 ± 1.1
9,SWCCGCFLLCVPRTVSSFVR,0.167 ± 0.39
10,WNKFNICFKGKAW,0.123 ± 0.5
11,MMHELHPRIELCG,6.12 ± 0.062
12,PEHYSGATRLVH,0.42 ± 0.47
13,PVDVIHSRFVTGHFD,-0.853 ± 0.78
14,YTSWDMYIEFIMSLQMYSVG,-0.729 ± 1.1
15,VWWGSMHAVC,0.652 ± 0.31
16,SVDNGYVFSLVDPREYRFHL,-0.813 ± 0.76
17,LMRRHRA,0.954 ± 0.25
18,FWKSWHTPRALAKNSPSAFL,-0.779 ± 0.64
19,NMMWCVKHYKSVRSLLGCLV,-0.891 ± 0.54
20,CERLDCSQKDSGCYWRRHGI,0.471 ± 0.62
21,SPHNTARLESAEDQSSMCEP,1.55 ± 0.23
22,YKACRH,3.89 ± 0.055
23,MVPCWRFQSMC,0.961 ± 0.81
24,PVNWGQGITTKALWYMTLRF,-0.417 ± 1.1
25,FGCIFYPMYLS,5.32 ± 0.088

row,Substance,amyloid nucleation score
1,ATTVNK,5.76 ± 0.061
2,SVVAVFLKYCVVADSATGV,0.001 ± 0.76
3,PLCHLLYRSLMFFTLSEVSC,0.042 ± 0.8
4,YSSKFSYGMMCTRWDIVQYK,-0.451 ± 0.76
5,SWNIFPQSNLKSKWDTIRCL,-2.46 ± 0.62
6,SYPAKDRNLYDCYLCPVSYL,-1.16 ± 0.61
7,NDHVVVAHTFYLCDRNVDEM,0.483 ± 0.4
8,VSFRHQCWNACNSDSVGEEI,0.892 ± 0.48
9,GFSPSMECHVMEAHLDMRVR,0.227 ± 0.21
10,CTLLTNITLFRGLHGTKFFC,2.43 ± 0.14
11,YSMLQF,inactive
12,TSWNWSFFWCTYYLFTQVRG,-0.772 ± 0.42
13,WRRPFM,0.163 ± 0.3
14,FEEYEGLLDVSFKRPSFYCI,0.456 ± 0.6
15,RELRQPNK,inactive
16,CRRCTIGLISDRGVLAAEES,-0.403 ± 0.63
17,QCQRLSWRCMWCGMSLYQYD,3.98 ± 0.048
18,HEKGIKVVQGGQVYGITVEV,0.093 ± 0.39
19,LPWHICLVHPR,1.81 ± 0.078
20,IFHYAFC,10.09 ± 0.061
21,IRCCTYFAALSILLAPIKAG,0.322 ± 0.27
22,LSNRSYFTSTAWYEKNRPA,-0.293 ± 0.26
23,NYYGSVTRHFLSFLF,inactive
24,MSGYVVFDMALKTRELMPAS,1.87 ± 0.48
25,MIWTKRLDDHELCLGSRSML,-0.739 ± 0.79

row,Substance,amyloid nucleation score
1,KCWYRH,1.39 ± 0.1
2,LYMVSPYRAKIRSQAFRLVT,-0.388 ± 0.33
3,LWYSL,-0.558 ± 0.5
4,NCRRMFGYNHCSHLCPLRVW,-0.653 ± 1.1
5,SGNKAMWKIIPLT,-0.262 ± 0.27
6,HTTASATPYFAGQV,0.042 ± 0.38
7,RFKDCLIPQWLPGMIKNR,-0.444 ± 0.48
8,FFYEFFSHICLGQERGWPRV,inactive
9,VFEFVVDNHLNIRLTRGGFM,4.93 ± 0.084
10,DEMVDAFYYSAM,0.35 ± 0.8
11,KAREWQVLVRCKKLTMKYSK,8.227 ± 0.046
12,WIQKPGLFASNGATATGGHV,0.395 ± 0.56
13,FRLIQWWARWIVFFGSTSLH,-0.804 ± 0.45
14,SSLWTCGFIELRPRVLSMGS,0.327 ± 0.57
15,DLYVLSWLYLGGEPNCVRF,0.446 ± 0.26
16,PESYVGRSLSPTVLVMWKSD,0.102 ± 1.1
17,WCVMLGLGSQGSRILRVLRM,0.29 ± 0.29
18,ATTYAYTGAQLTWFRWMVVQ,0.832 ± 0.31
19,HFCYKMRLKDDCVCFKGYTI,4.03 ± 0.058
20,VAWTRCSLHWLQFVLCLSGE,5.92 ± 0.041
21,IGRMGIQKWS,0.698 ± 0.47
22,NRFVYLVI,-0.321 ± 0.36
23,WSSERWPEWIG,0.027 ± 0.24
24,VIFCVLLVNNLDWRFWPSSK,4.928 ± 0.037
25,VFFWLQNFEVLWPMEARVWE,4.14 ± 0.096

row,Substance,amyloid nucleation score
1,YQYDNPVLDKT,-0.178 ± 0.55
2,SVVWFNTMYLYDWLHKPICI,inactive
3,RMFWISNKVSIPGPGLEAGN,inactive
4,GCDEEDCCCLRFRGC,6.513 ± 0.031
5,IACLNKTFLFSCVNIYGLMT,5.736 ± 0.037
6,FIEVTSRNT,-0.994 ± 0.42
7,PICESWHFSLIVLMLFLNWE,inactive
8,KTIFGGWSARSGNISMPSWM,0.267 ± 0.54
9,VEGTIRKRFGVWKYVLAPWL,-0.267 ± 0.38
10,SRWIGSECNPNCNLSVSYIL,4.87 ± 0.057
11,WMYGWERSRVYDGNIVDRRW,0.035 ± 1
12,RPCFCFSMFYGRKW,0.553 ± 0.8
13,QYVMERYWRDWFKRMMLLFS,0.584 ± 0.27
14,CLTTGNLWEVTAGIESVRWI,0.202 ± 0.5
15,RIMISSIELDNCWYILGLSA,inactive
16,DKGWLANDNLDKDLHQIPYA,0.515 ± 0.35
17,MVSSIGILASWYTSIVWFGY,-0.191 ± 1.1
18,VNLSCPVMNRTSMMCVVYLH,7.799 ± 0.052
19,NHYSSVMKVFCDRFTSAIGG,-0.946 ± 0.63
